From patent US9994628B2, “Peptides and combination of peptides for use in immunotherapy against various tumors” (IMMATICS BIOTECHNOLOGIES GMBH, priority 2015, dated 2018)

Molecular target: HLA-A*02:01 (Homo sapiens, UniProt P04439, D140Y/D185E/D98H/E176V/E277Q/G131W/G231S/I119V/I121R/I166T/I218V/L300P/L318F/N151K/N90K/P208A/P217A/Q86G/Q94H/R138H/R169H/T345S)
Test: MHC binding assay: UV-ligand exchange and β2m ELISA (peptide exchange yield, Table 7)
Settings: binding of HLA-class I restricted peptides to HLA-A*02:01, UV-ligand exchange
Method in brief: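 Peptide-MHC complexes made by UV-mediated exchange of a cleavable ligand for test peptide; exchange yield measured by ELISA detecting β2m of stabilized complexes captured on streptavidin, using refolded HLA-A*02:01/MLA-001 monomer standards (15-500 ng/ml). Samples diluted 100-fold; HRP anti-β2m, TMB, absorbance 450 nm.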

Row | Substance | Peptide exchange (MHC class I binding score, peptide exchange yield)
1 | 214 (ALFETLIQL; listed as Homo sapiens) [compound 214] | +++ (≥50% = +++)
2 | 215 (QIADIVTSV; listed as Homo sapiens) [compound 215] | ++ (≥20% = ++)
3 | 216 (ALSTVTPRI; listed as Homo sapiens) [compound 216] | ++ (≥20% = ++)
4 | 217 (LLWPSSVPA; listed as Homo sapiens) [compound 217] | +++ (≥50% = +++)
5 | 218 (SLTGANITV; listed as Homo sapiens) [compound 218] | +++ (≥50% = +++)
6 | 219 (GVVPTIQKV; listed as Homo sapiens) [compound 219] | ++ (≥20% = ++)
7 | 220 (ALSELERVL; listed as Homo sapiens) [compound 220] | +++ (≥50% = +++)
8 | 221 (IMLNSVEEI; listed as Homo sapiens) [compound 221] | ++ (≥20% = ++)
9 | 222 (LLTGVFAQL; listed as Homo sapiens) [compound 222] | ++ (≥20% = ++)
10 | 223 (ALHPVQFYL; listed as Homo sapiens) [compound 223] | +++ (≥50% = +++)
11 | 224 (LLFDWSGTGRADA; listed as Homo sapiens) [compound 224] | +++ (≥50% = +++)
12 | 225 (FLPQPVPLSV; listed as Homo sapiens) [compound 225] | +++ (≥50% = +++)
13 | 226 (SLAGNLQEL; listed as Homo sapiens) [compound 226] | +++ (≥50% = +++)
14 | 227 (SEMEELPSV; listed as Homo sapiens) [compound 227] | + (≥10% = +)
15 | 228 (SLLELDGINLRL; listed as Homo sapiens) [compound 228] | +++ (≥50% = +++)
16 | 229 (YLYELEHAL; listed as Homo sapiens) [compound 229] | ++ (≥20% = ++)
17 | 230 (KLLNMIFSI; listed as Homo sapiens) [compound 230] | +++ (≥50% = +++)
18 | 231 (LLDDIFIRL; listed as Homo sapiens) [compound 231] | +++ (≥50% = +++)
19 | 233 (SLFESLEYL; listed as Homo sapiens) [compound 233] | +++ (≥50% = +++)
20 | 234 (VLLNEILEQV; listed as Homo sapiens) [compound 234] | ++++ (≥75% = ++++)
21 | 235 (SLLNQPKAV; listed as Homo sapiens) [compound 235] | ++ (≥20% = ++)
22 | 236 (KMSELQTYV; listed as Homo sapiens) [compound 236] | +++ (≥50% = +++)

Row | Substance | Peptide exchange (MHC class I binding score, peptide exchange yield)
23 | 237 (ALLEQTGDMSL; listed as Homo sapiens) [compound 237] | +++ (≥50% = +++)
24 | 238 (HLQEKLQSL; listed as Homo sapiens) [compound 238] | ++ (≥20% = ++)
25 | 239 (VIIKGLEEITV; listed as Homo sapiens) [compound 239] | +++ (≥50% = +++)
26 | 241 (KQFEGTVEI; listed as Homo sapiens) [compound 241] | +++ (≥50% = +++)
27 | 242 (KLQEEIPVL; listed as Homo sapiens) [compound 242] | +++ (≥50% = +++)
28 | 243 (GLAEFQENV; listed as Homo sapiens) [compound 243] | ++ (≥20% = ++)
29 | 244 (NVAEIVIHI; listed as Homo sapiens) [compound 244] | +++ (≥50% = +++)
30 | 245 (ALLEEEEGV; listed as Homo sapiens) [compound 245] | ++ (≥20% = ++)
31 | 246 (ALAGIVTNV; listed as Homo sapiens) [compound 246] | +++ (≥50% = +++)
32 | 247 (NLLIDDKGTIKL; listed as Homo sapiens) [compound 247] | ++ (≥20% = ++)
33 | 248 (VLMQDSRLYL; listed as Homo sapiens) [compound 248] | +++ (≥50% = +++)
34 | 249 (YLYQILQGI; listed as Homo sapiens) [compound 249] | +++ (≥50% = +++)
35 | 250 (LMQDSRLYL; listed as Homo sapiens) [compound 250] | +++ (≥50% = +++)
36 | 251 (LLWGNLPEI; listed as Homo sapiens) [compound 251] | +++ (≥50% = +++)
37 | 252 (SLMEKNQSL; listed as Homo sapiens) [compound 252] | ++ (≥20% = ++)
38 | 253 (KLLAVIHEL; listed as Homo sapiens) [compound 253] | +++ (≥50% = +++)
39 | 254 (ALGDKFLLRV; listed as Homo sapiens) [compound 254] | ++ (≥20% = ++)
40 | 255 (FLMKNSDLYGA; listed as Homo sapiens) [compound 255] | +++ (≥50% = +++)
41 | 256 (FLNDIFERI; listed as Homo sapiens) [compound 256] | +++ (≥50% = +++)
42 | 257 (KLIDHQGLYL; listed as Homo sapiens) [compound 257] | +++ (≥50% = +++)
43 | 258 (QLVQRVASV; listed as Homo sapiens) [compound 258] | ++ (≥20% = ++)
44 | 259 (GPGIFPPPPPQP; listed as Homo sapiens) [compound 259] | + (≥10% = +)

Now from value to substance:

Row | Peptide exchange (MHC class I binding score, peptide exchange yield) | Substance
45 | +++ (≥50% = +++) | 260 (ALNESLVEC; listed as Homo sapiens) [compound 260]
46 | +++ (≥50% = +++) | 261 (GLAALAVHL; listed as Homo sapiens) [compound 261]
47 | +++ (≥50% = +++) | 262 (LLLEAVWHL; listed as Homo sapiens) [compound 262]
48 | +++ (≥50% = +++) | 263 (SIIEYLPTL; listed as Homo sapiens) [compound 263]
49 | ++ (≥20% = ++) | 264 (TLHDQVHLL; listed as Homo sapiens) [compound 264]
50 | +++ (≥50% = +++) | 265 (FLLDKPQDLSI; listed as Homo sapiens) [compound 265]
51 | ++ (≥20% = ++) | 266 (FLLDKPQDL; listed as Homo sapiens) [compound 266]
52 | +++ (≥50% = +++) | 267 (YLLDMPLWYL; listed as Homo sapiens) [compound 267]
53 | ++ (≥20% = ++) | 268 (SLDKDIVAL; listed as Homo sapiens) [compound 268]
54 | ++++ (≥75% = ++++) | 269 (GLLDCPIFL; listed as Homo sapiens) [compound 269]
55 | +++ (≥50% = +++) | 270 (TLLTFFHEL; listed as Homo sapiens) [compound 270]
56 | +++ (≥50% = +++) | 271 (VLIEYNFSI; listed as Homo sapiens) [compound 271]
57 | ++ (≥20% = ++) | 272 (FVMEGEPPKL; listed as Homo sapiens) [compound 272]
58 | ++ (≥20% = ++) | 273 (SLNKQIETV; listed as Homo sapiens) [compound 273]
59 | +++ (≥50% = +++) | 274 (TLYNPERTITV; listed as Homo sapiens) [compound 274]
60 | ++ (≥20% = ++) | 275 (AVPPPPSSV; listed as Homo sapiens) [compound 275]
61 | +++ (≥50% = +++) | 276 (RMPTVLQCV; listed as Homo sapiens) [compound 276]
62 | +++ (≥50% = +++) | 277 (KLQEELNKV; listed as Homo sapiens) [compound 277]
63 | +++ (≥50% = +++) | 278 (VLEDKVLSV; listed as Homo sapiens) [compound 278]
64 | ++ (≥20% = ++) | 279 (VLMDEGAVLTL; listed as Homo sapiens) [compound 279]
65 | +++ (≥50% = +++) | 280 (HLWGHALFL; listed as Homo sapiens) [compound 280]
66 | ++ (≥20% = ++) | 281 (LLLESDPKVYSL; listed as Homo sapiens) [compound 281]
67 | ++ (≥20% = ++) | 282 (SLYALHVKA; listed as Homo sapiens) [compound 282]
